Data reported in US20260242478A1 (published 2026).

How the values were obtained:
[1] = biological target: T1, Anti-CD28 scFv (VH - linker 1 - VL) (biotinylated (site not stated)); experiment: phage ELISA; biotinylated anti-CD28 scFv on neutravidin plate, clonal phage supernatant, anti-M13-HRP;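 note: before the phage were added, wells were pre-incubated with soluble CD28 protein in blocking buffer, or with blocking buffer alone, and were not washed in between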
T1 construct: Biotinylated anti-CD28 scFv captured on neutravidin coated plates in the panning ELISA

[2] = biological target: T1, Anti-CD28 scFv (VH - linker 1 - VL); experiment: phage ELISA as above; wells pre-incubated with soluble CD28 as competitor;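 note: crude clonal phage supernatants tested, with bound phage detected by HRP-conjugated anti-M13 antibody, and reference wells given blocking buffer without CD28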
Experimental: (§1) Clonal phage were harvested as crude supernatants and screened via standard enzyme linked immunosorbent assays (ELISAs). […] Prior to the addition of clonal phage, wells were incubated with blocking buffer and CD28 soluble protein or blocking buffer alone. Without washing or aspirating, clonal phage supernatants were then added to the wells and incubated for a short time. Wells were then washed followed by detection of bound phage using a horse radish peroxidase conjugated anti-M13 antibody.

[3] = biological target: T2, anti-CD28 scFv (VH - linker 1 - VL) (biotinylated (site not stated)); experiment: phage ELISA as above; wells pre-incubated with soluble CD28 (competitor)
T2 sequence (scFv, as listed by the source): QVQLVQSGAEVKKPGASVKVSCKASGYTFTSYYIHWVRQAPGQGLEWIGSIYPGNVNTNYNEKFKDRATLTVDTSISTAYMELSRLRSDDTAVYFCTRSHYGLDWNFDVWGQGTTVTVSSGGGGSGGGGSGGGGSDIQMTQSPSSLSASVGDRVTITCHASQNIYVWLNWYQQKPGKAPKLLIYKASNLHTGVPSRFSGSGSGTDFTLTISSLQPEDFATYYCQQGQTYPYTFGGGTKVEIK

[4] = biological target: T2, anti-CD28 scFv (VH - linker 1 - VL); experiment: phage ELISA; biotinylated anti-CD28 scFv on neutravidin plate, clonal phage supernatant, anti-M13-HRP;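 note: before the phage were added, wells were pre-incubated with soluble CD28 protein in blocking buffer, or with blocking buffer alone, and were not washed in between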
Experimental: as §1

[5] = biological target: T3, anti-CD28 scFv (VH - linker 1 - VL) (biotinylated (site not stated)); experiment: clonal phage ELISA; captured anti-CD28 scFv pre-incubated with soluble CD28 (competitor), anti-M13-HRP detection;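 note: crude clonal phage supernatants added to wells pretreated with soluble CD28 in blocking buffer, compared against wells given blocking buffer only, then bound phage measured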
T3 construct: Captured as biotinylated scFv on neutravidin coated plates in the clonal phage ELISA
T3 sequence (scFv, as listed by the source): as above

[6] = biological target: T3, anti-CD28 scFv (VH - linker 1 - VL); experiment: clonal phage ELISA; biotinylated anti-CD28 scFv on neutravidin plate, anti-M13-HRP detection;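 note: crude supernatants of phage clones were tested in wells pretreated with blocking buffer either alone or supplemented with soluble CD28 protein before phage addition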
Experimental: as §1

T1 sequence (scFv, as listed by the source): as above

Binder | CD28 scFv signal [1] | CD28 scFv signal in presence of CD28 [2] | CD28 scFv signal in presence of CD28 [3] | CD28 scFv signal [4] | further results
MDWCPRDLWDECFN (Clonal phage of the Peptide-9 library) [Phage-310] | 2.37 | 0.248 |  |  | 
MDWCPMYLWDECFF [Phage-356 clonal phage peptide MDWCPMYLWDECFF] |  |  | 0.178 | 1.65 | 
MDWCPTYLWNECFN (Clonal phage of the Peptide-9 library) [Phage-320] | 2.24 | 0.606 |  |  | 
MDWCPRALWNVCFA (Clonal phage of the Peptide-9 library; also called the position column gives N at position 14)) [Phage-329] | 2.14 | 0.249 |  |  | 
MSWCPIDLWSECFA [Phage-340 clonal phage peptide MSWCPIDLWSECFA] |  |  | 0.148 | 1.99 | 
MHWCPRHLWSECFN [Phage-361 clonal phage peptide MHWCPRHLWSECFN] |  |  | 0.478 | 1.43 | 
MDWCPRDLWTQCFF [Phage-343 clonal phage peptide MDWCPRDLWTQCFF] |  |  | 0.119 | 1.93 | 
MDWCPRLLWHECFN [Phage-357 clonal phage peptide MDWCPRLLWHECFN] |  |  | 0.109 | 1.6 | 
MDWCPMFLWHECFS [Phage-360 clonal phage peptide … (as printed)] |  |  | 0.193 | 1.44 | 
NYWCPSSMWNRCLH (tested as crude clonal phage supernatant) [Phage-219] |  |  |  |  | CD28 scFv signal in presence of CD28 [5]: 0.088; CD28 scFv signal [6]: 0.158
MDWCPWFLWNECFN [Phage-350 clonal phage peptide MDWCPWFLWNECFN] |  |  | 0.279 | 1.77 | 
MSWCPRDLWHLCFF (Clonal phage of the Peptide-9 library) [Phage-319] | 2.27 | 0.319 |  |  | 
MDWCPRHLWDECFY (Clonal phage of the Peptide-9 library) [Phage-331] | 2.13 | 0.146 |  |  | 
MDWCPAYLWDECFA (Clonal phage of the Peptide-9 library) [Phage-325] | 2.17 | 0.163 |  |  | 
MFWCPITLWNECFN (Clonal phage of the Peptide-9 library) [Phage-326] | 2.15 | 0.143 |  |  | 
MDWCPRALWDHCFN (Clonal phage of the Peptide-9 library) [Phage-328] | 2.15 | 0.293 |  |  | 
MDWCPTDLWHECFA (Clonal phage of the Peptide-9 library) [Phage-333] | 2.07 | 0.154 |  |  | 
TTWCPTSMWLHCFD (tested as crude clonal phage supernatant) [Phage-221] |  |  |  |  | CD28 scFv signal in presence of CD28 [5]: 0.072; CD28 scFv signal [6]: 0.074
MDWCPRDLWNWCFN [Phage-336 clonal phage peptide MDWCPRDLWNWCFN] |  |  | 0.39 | 2.03 | 
MDWCPRDQWHNCFN (tested as crude clonal phage supernatant) [Phage-222] |  |  |  |  | CD28 scFv signal in presence of CD28 [5]: 0.078; CD28 scFv signal [6]: 0.2
MDWCPIHLWNECFN (Clonal phage of the Peptide-9 library) [Phage-314] | 2.35 | 0.157 |  |  | 
MDWCPRHLWHECFT (Clonal phage of the Peptide-9 library) [Phage-317] | 2.3 | 0.32 |  |  | 
MDWCPRHLWHACFS [Phage-346 clonal phage peptide MDWCPRHLWHACFS] |  |  | 0.167 | 1.83 | 
MDFCPRFLWHECFN [Phage-345 clonal phage peptide MDFCPRFLWHECFN] |  |  | 0.225 | 1.91 | 
MDWCPRSLWNYCFN (Clonal phage of the Peptide-9 library) [Phage-313] | 2.35 | 0.209 |  |  | 
MDWCPRSLWNYCFA (Clonal phage of the Peptide-9 library) [Phage-316] | 2.32 | 0.198 |  |  | 

Binder | CD28 scFv signal [1] | CD28 scFv signal in presence of CD28 [2] | CD28 scFv signal in presence of CD28 [3] | CD28 scFv signal [4] | further results
MDWCPRHLWYECFS (Clonal phage of the Peptide-9 library) [Phage-324] | 2.17 | 0.163 |  |  | 
MDWCPRDLWYVCFA (Clonal phage of the Peptide-9 library) [Phage-321] | 2.22 | 0.138 |  |  | 
MDWCPKPLWHVCFA [Phage-337 clonal phage peptide MDWCPKPLWHVCFA] |  |  | 0.152 | 2.02 | 
MDWCPRFLWDVCFN (Clonal phage of the Peptide-9 library; also called the position column gives F at position 7)) [Phage-330] | 2.14 | 0.309 |  |  | 
MDWCPRYLWLECFN [Phage-354 clonal phage peptide MDWCPRYLWLECFN] |  |  | 0.368 | 1.69 | 
MDWCPRDLWYQCFN (Clonal phage of the Peptide-9 library) [Phage-311] | 2.35 | 0.609 |  |  | 
IDWCPLHLWHECYH [Phage-353 clonal phage peptide IDWCPLHLWHECYH] |  |  | 0.182 | 1.69 | 
MDWCPIHLWYECFN [Phage-352 clonal phage peptide MDWCPIHLWYECFN] |  |  | 0.203 | 1.73 | 
LDWCPRHLWALCFN [Phage-349 clonal phage peptide LDWCPRHLWALCFN] |  |  | 0.24 | 1.78 | 
FDFCPTTMWTYCQH (tested as crude clonal phage supernatant) [Phage-220] |  |  |  |  | CD28 scFv signal in presence of CD28 [5]: 0.081; CD28 scFv signal [6]: 0.086
MDWCPRNLWHECFA [Phage-342 clonal phage peptide MDWCPRNLWHECFA] |  |  | 0.175 | 1.97 | 
MDWCPRPLWHECFA [Phage-359 clonal phage peptide MDWCPRPLWHECFA] |  |  | 0.138 | 1.44 | 
MDWCPMNLWHECFA [Phage-351 clonal phage peptide MDWCPMNLWHECFA] |  |  | 0.16 | 1.74 | 
MDWCPRHLWDECFN [Phage-341 clonal phage peptide MDWCPRHLWDECFN] |  |  | 0.268 | 1.98 | 
MDWCPMFLWDECFN (Clonal phage of the Peptide-9 library; also called the position column gives F at position 7)) [Phage-318] | 2.29 | 0.203 |  |  | 
MDWCPRFLWNECFY [Phage-338 clonal phage peptide MDWCPRFLWNECFY] |  |  | 0.287 | 2 | 
MDWCPRHLWIECFN (Clonal phage of the Peptide-9 library) [Phage-322] | 2.21 | 0.376 |  |  | 
MDWCPRFLWDYCFA (Clonal phage of the Peptide-9 library) [Phage-335] | 2.03 | 0.207 |  |  | 
MDWCPTYLWNVCFA (Clonal phage of the Peptide-9 library) [Phage-323] | 2.21 | 0.132 |  |  | 
MHWCPRDLWHVCFN (Clonal phage of the Peptide-9 library) [Phage-327] | 2.15 | 0.15 |  |  | 
MAWCPWYLWDECFN [Phage-348 clonal phage peptide MAWCPWYLWDECFN] |  |  | 0.267 | 1.81 | 
IDWCPRALWDACLA (Clonal phage of the Peptide-9 library) [Phage-332] | 2.1 | 0.164 |  |  | 
MDWCPRHLWVHCFS [Phage-344 clonal phage peptide MDWCPRHLWVHCFS] |  |  | 0.173 | 1.91 | 
MDWCPRYLWDECFS (Clonal phage of the Peptide-9 library) [Phage-334] | 2.06 | 0.164 |  |  | 
MDWCPRTLWDQCFF [Phage-339 clonal phage peptide MDWCPRTLWDQCFF] |  |  | 0.314 | 1.99 | 
MDWCPTYLWHVCFS (Clonal phage of the Peptide-9 library) [Phage-315] | 2.32 | 0.16 |  |  | 
